B1: nanobody Nb26 (VHH)
VHH: QVQLQESGGGLVQAGDSLRLSCAASGRTFSTYPMGWFRQAPGKEREFVAASSSRAYYADSVKGRFTISRNNAKNTVYLQMNSLKPEDTAVYYCVADSSPYYRRYDAAQDYDYWGQGTQVTVSS
B2: nanobody Nb28 (VHH)
VHH: QVQLQESGGGLVQPGGSLRLSCAAPGFRLDNYVIGWFRQAPGKEREGVSCISSSAGSTYYADSVKGRFTISRDNAKNTVYLQMNSLKPEDTAVYYCATACYSSYVTYWGQGTQVTVSS
B3: nanobody Nb30 (VHH)
VHH: QVQLQESGGGLVQPGGSLRLSCAASGSIFSDNDMGWYRQPPGKQREWVATITYDHVTWYADSVKGRFAISRDNAKNTVYLQMNDLKPEDTAVYYCNAVPGRRGSWGQGTQVTVSS
B4: nanobody Nb49 (VHH)
VHH: QVQLQESGGGLVQPGGSLRLSCIASGRTFNPYGMGWFRQVPGKERTFVSGITWIGGTTYYVNSVKGRFTISRDRAKNTVYLQMNSLKPEDTAVYYCAADKDNTGYNYWGQGTQVTVSS
B5: nanobody Nb39 (VHH)
VHH: QVQLQESGGGLVQAGGSLRLSCAASGSIFSINVMGWYRQAPGKQRELLASITSRGSTNYADSVKDRFTISRDNAKNTVYLQINSLKPEDTAVYYCNSRGWTTTRGDYDYWGQGTQVTVSS
B6: nanobody Nb34 (VHH)
VHH: QVQLQESGGGLVQPGGSLRLSCAASQFTFSSDWMYWVRQAPGKGLEWVSSISPGGAATAYAASVKGRFTISRDNAKNTLYLQMNSLKSEDTAVYYCSKTRAGTGRGQGTQVTVSS

How the values were obtained:
[1] = substrate: CC protein origami tetrahedron TET12SN; assay: ITC; nanobody in the syringe titrated into the cell with TET12SN or a tetrahedron variant (2-5 µM), CC peptide dimer (5-10 µM) or a complex preformed by a first titration; MicroCal VP-ITC, 25 °C; 20 mM sodium phosphate pH 7.0, 150 mM NaCl; independent binding sites model (SEDPHAT), errors by Monte-Carlo
[2] = target: protein origami tetrahedron TET12SN; assay: ITC; nanobody titrated into the CC peptide dimer, the origami protein or a preformed nanobody-target complex; conditions in SI Appendix
[3] = substrate: CC protein origami tetrahedron variant TET12SN(22CC); assay: ITC; nanobody in the syringe titrated into the cell with TET12SN or a tetrahedron variant (2-5 µM), CC peptide dimer (5-10 µM) or a complex preformed by a first titration; MicroCal VP-ITC, 25 °C; 20 mM sodium phosphate pH 7.0, 150 mM NaCl; independent binding sites model (SEDPHAT), errors by Monte-Carlo; details: for stoichiometry N: scale: nanobody per TET12SN(22CC)
[4] = substrate: CC protein origami tetrahedron TET12SN; assay: ITC; titrations at 18, 25 and 32 °C fitted globally (independent binding sites, temperature-independent heat capacity); parameters reported at 25 °C; 20 mM sodium phosphate pH 7.0, 150 mM NaCl
[5] = target: preformed Nb30_2-TET12SN complex (llama); assay: ITC; nanobody in the syringe titrated into the cell with TET12SN or a tetrahedron variant (2-5 µM), CC peptide dimer (5-10 µM) or a complex preformed by a first titration; MicroCal VP-ITC, 25 °C; 20 mM sodium phosphate pH 7.0, 150 mM NaCl; independent binding sites model (SEDPHAT), errors by Monte-Carlo
[6] = target: preformed Nb30_(2)-TET12SN complex (llama); assay: ITC; nanobody titrated into the CC peptide dimer, the origami protein or a preformed nanobody-target complex; conditions in SI Appendix
[7] = target: preformed Nb30_2-TET12SN complex (llama); assay: ITC; titrations at 18, 25 and 32 °C fitted globally (independent binding sites, temperature-independent heat capacity); parameters reported at 25 °C; 20 mM sodium phosphate pH 7.0, 150 mM NaCl
[8] = target: preformed Nb28_2-TET12SN(22CC) complex (llama); assay: ITC; nanobody in the syringe titrated into the cell with TET12SN or a tetrahedron variant (2-5 µM), CC peptide dimer (5-10 µM) or a complex preformed by a first titration; MicroCal VP-ITC, 25 °C; 20 mM sodium phosphate pH 7.0, 150 mM NaCl; independent binding sites model (SEDPHAT), errors by Monte-Carlo
[9] = target: preformed Nb28_2-TET12SN complex (llama); assay: as above
[10] = target: preformed Nb28_(2)-TET12SN complex (llama); assay: ITC; nanobody titrated into the CC peptide dimer, the origami protein or a preformed nanobody-target complex; conditions in SI Appendix

| Binder | stoichiometry N (nanobody per TET12SN (cell:syringe)) [1] | Kd [2] | Kd [3] | stoichiometry N [3] | Kd [4] | stoichiometry N (nanobody per TET12SN (cell:syringe)) [4] | other results |
| --- | --- | --- | --- | --- | --- | --- | --- |
| B1 | 2 | 1.8 nM | – | – | – | – | – |
| B2 | 2 | 39 nM | 27 nM | 2 | 19 nM | 2 | Kd [5]: 2.3 nM; stoichiometry N (nanobody per complex (cell:syringe)) [5]: 2; Kd [6]: 2 nM; Kd [7]: 1.6 nM; stoichiometry N (nanobody per complex (cell:syringe)) [7]: 2 |
| B3 | 2 | 350 nM | 270 nM | 2 | 160 nM | 2 | Kd [8]: 24 nM; stoichiometry N (nanobody per complex (cell:syringe)) [8]: 2; stoichiometry N (nanobody per complex (cell:syringe)) [9]: 2; Kd [10]: 26 nM |
| B4 | 2 | 160 nM | – | – | – | – | – |
| B5 | 2 | – | – | – | – | – | KD, high-affinity site [2]: 27 nM; KD, second binding site [2]: 2 µM |
| B6 | 1 | 21000 nM | – | – | – | – | – |

— PMC8092592
